Like-named read-outs stand apart in the source and are kept apart here. Values belong to the binder of their own block, whether it stands above or below them.
What was measured:
[1] = target: T1, dodecapeptide antigen DVFYPYPYASGS (as used in biolayer interferometry) (synthetic peptide); test: BLI
T1 chain: DVFYPYPYASGS

[2] = target: scFv-1 (120_6290_1), de novo designed single-chain antibody; test: ITC
[3] = target: scFv-2D10, single-chain antibody of mAb 2D10; test: ITC
[4] = target: scFv-2 (120_15439_2), de novo designed single-chain antibody; test: BLI
[5] = target: scFv-1 (120_6290_1), de novo designed single-chain antibody; test: BLI
[6] = target: scFv-2 (120_15439_2), de novo designed single-chain antibody; test: BLI; remark: listed apart in the source
[7] = target: scFv-4 (140_15899_5), de novo designed single-chain antibody; test: BLI
[8] = target: scFv-2 (120_15439_2), de novo designed single-chain antibody; test: BLI; remark: listed apart in the source
[9] = target: scFv-2 (120_15439_2), de novo designed single-chain antibody; test: BLI; remark: listed apart in the source

Kd [1]: 3.8 nM
kon [1]: 206000 M⁻¹ s⁻¹
B1: scFv-2D10, single-chain antibody of mAb 2D10 (scFv, V domains shown)
VH: EIQLQQSGPELVKPGASVKISCKASGYSFTDYIMLWVKQSHGKSLEWIGNINPYYGSTSYNLKFKGKATLTVDKSSSTAYMQLNSLTSEDSAVYYCARKNYYGSSLDYWGQGTTLTVSS
VL: DVVMTQTPFSLPVSLGDQASISCRSSQSLVHSNGNTYLHWYLQKPGQSPKLLIYKVSNRFSGVPDRFSGSGSGTDFTLKISRVEAEDLGVYFCSQSTHVPYTFGGGTKLEIK

stoichiometry N [2]: 1
Kd [3]: 1 nM
stoichiometry N [3]: 1
Binder: DVFYPYPYASGS [dodecapeptide antigen …, not conjugated to BSA (as used in ITC)]

Kd [4]: 21.5 nM
Kd [5]: 8.9 nM
kobs [5]: 0.0033 s⁻¹
Kd [6]: 14.4 nM
kobs [6]: 0.0041 s⁻¹
koff [6]: 0.00132 s⁻¹
Kd [7]: 23.8 nM
kobs [7]: 0.0039 s⁻¹
koff [7]: 0.00171 s⁻¹
Kd [8]: 17.5 nM
Kd [9]: 2.55 nM
Binder: DVFYPYPYASGS [dodecapeptide antigen … (as used in biolayer interferometry)]

Source: publication PMC5726764 (Biotechnology and bioengineering, 2017)
